Assay results from US20200292534A1.

Experiments:
NLpoly11S [1] = molecular target: T1, NLpoly11S; assay: luminescence complementation titration, one-site specific binding fit
T1 chain: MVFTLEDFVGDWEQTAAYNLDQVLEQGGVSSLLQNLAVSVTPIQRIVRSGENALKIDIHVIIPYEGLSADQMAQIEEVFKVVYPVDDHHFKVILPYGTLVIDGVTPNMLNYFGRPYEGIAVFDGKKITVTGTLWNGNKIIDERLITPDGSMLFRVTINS

NLpoly11S [2] = molecular target: T1, NLpoly11S; assay: luminescence complementation titration, one-site specific binding; conditions: chains peptide; modification not given

Binder: VTGYRLFEEEL (modifications not checked) [array2.54]
- Bmax (NLpoly11S [1]): 251000
- Kd (NLpoly11S [1]): 68300 nM

Binder: VTGYRLFQQIS (modifications not checked) [array2.13]
- Bmax (NLpoly11S [1]): 19400
- Kd (NLpoly11S [1]): 876 nM

Binder: VTGYRLFKQEL (modifications not checked) [array2.33]
- Bmax (NLpoly11S [1]): 8550
- Kd (NLpoly11S [1]): 1950 nM

Binder: VTGYRLFKEIL (modifications not checked) [array2.34]
- Bmax (NLpoly11S [1]): 21900
- Kd (NLpoly11S [1]): 4400 nM

Binder: VTGYRLFKKIL (modifications not checked) [array2.28]
- Bmax (NLpoly11S [1]): 141000
- Kd (NLpoly11S [1]): 76.6 nM

Binder: VTGYRLFEKIL [NLpep128]
- Kd (NLpoly11S [2]): 237 nM

Binder: VTGYRLFEKAS (modifications not checked) [array2.20]
- Bmax (NLpoly11S [1]): 36300
- Kd (NLpoly11S [1]): 1790 nM

Binder: VTGYRLFQQEL (modifications not checked) [array2.42]
- Bmax (NLpoly11S [1]): 14200
- Kd (NLpoly11S [1]): 19000 nM

Binder: VTGYRLFQQIL (modifications not checked) [array2.40]
- Bmax (NLpoly11S [1]): 66300
- Kd (NLpoly11S [1]): 122000 nM

Binder: VTGYRLFKKAS (modifications not checked) [array2.2]
- Bmax (NLpoly11S [1]): 104000
- Kd (NLpoly11S [1]): 241 nM

Binder: VTGYRLFQQAS (modifications not checked) [array2.14]
- Bmax (NLpoly11S [1]): 4350
- Kd (NLpoly11S [1]): 1110 nM

Binder: VEGYRLFEKEL (modifications not checked) [array2.102]
- Bmax (NLpoly11S [1]): 962
- Kd (NLpoly11S [1]): 5790 nM

Binder: VTGYRLFEKAL (modifications not checked) [array2.47]
- Bmax (NLpoly11S [1]): 34500
- Kd (NLpoly11S [1]): 1810 nM

Binder: VTGYRLFQKES (modifications not checked) [array2.12]
- Bmax (NLpoly11S [1]): 17200
- Kd (NLpoly11S [1]): 417 nM

Binder: VTGYRLFEQIS (modifications not checked) [array2.22]
- Bmax (NLpoly11S [1]): 121000
- Kd (NLpoly11S [1]): 10800 nM

Binder: VTGYRLFEKIL (modifications not checked) [array2.46]
- Bmax (NLpoly11S [1]): 219000
- Kd (NLpoly11S [1]): 1920 nM

Binder: VTGYRLFQEIL (modifications not checked) [array2.43]
- Bmax (NLpoly11S [1]): 9410
- Kd (NLpoly11S [1]): 17200 nM

Binder: VTGYRLFQQAL (modifications not checked) [array2.41]
- Bmax (NLpoly11S [1]): 3470
- Kd (NLpoly11S [1]): 3970 nM

Binder: VTGYRLFEQIL (modifications not checked) [array2.49]
- Bmax (NLpoly11S [1]): 99200
- Kd (NLpoly11S [1]): 124000 nM

Binder: VTGYRLFEKIS [NLpep99]
- Kd (NLpoly11S [2]): 266 nM

Binder: VTGYRLFQKEL (modifications not checked) [array2.39]
- Bmax (NLpoly11S [1]): 33100
- Kd (NLpoly11S [1]): 2480 nM

Binder: VTGYRLFEKES [NLpep101]
- Kd (NLpoly11S [2]): 3120 nM

Binder: VTGYRLFQKAL (modifications not checked) [array2.38]
- Bmax (NLpoly11S [1]): 72800
- Kd (NLpoly11S [1]): 975 nM

Binder: VTGYRLFKQIL (modifications not checked) [array2.31]
- Bmax (NLpoly11S [1]): 115000
- Kd (NLpoly11S [1]): 2990 nM

Binder: VTGYRLFEQES (modifications not checked) [array2.24]
- Bmax (NLpoly11S [1]): 1830
- Kd (NLpoly11S [1]): 7830 nM

Binder: VTGYRLFQEEL (modifications not checked) [array2.45]
- Bmax (NLpoly11S [1]): 14300
- Kd (NLpoly11S [1]): 35400 nM

Binder: VTGYRLFKEAL (modifications not checked) [array2.35]
- Bmax (NLpoly11S [1]): 5550
- Kd (NLpoly11S [1]): 5150 nM

Binder: VTGYRLFEQAS (modifications not checked) [array2.23]
- Bmax (NLpoly11S [1]): 3820
- Kd (NLpoly11S [1]): 4170 nM

Binder: VTGYRLFQQES (modifications not checked) [array2.15]
- Bmax (NLpoly11S [1]): 5200
- Kd (NLpoly11S [1]): 7490 nM

Binder: VTGYRLFQKIL (modifications not checked) [array2.37]
- Bmax (NLpoly11S [1]): 127000
- Kd (NLpoly11S [1]): 362 nM

Binder: VTGYRLFQEES (modifications not checked) [array2.18]
- Bmax (NLpoly11S [1]): 5110
- Kd (NLpoly11S [1]): 67300 nM

Binder: VTGYRLFQEAL (modifications not checked) [array2.44]
- Bmax (NLpoly11S [1]): 4230
- Kd (NLpoly11S [1]): 16000 nM

Binder: VTGYRLFKQIS (modifications not checked) [array2.4]
- Bmax (NLpoly11S [1]): 104000
- Kd (NLpoly11S [1]): 746 nM

Binder: VTGYRLFKQAL (modifications not checked) [array2.32]
- Bmax (NLpoly11S [1]): 34900
- Kd (NLpoly11S [1]): 3560 nM

Binder: VTGYRLFQKIS (modifications not checked) [array2.10]
- Bmax (NLpoly11S [1]): 113000
- Kd (NLpoly11S [1]): 81.2 nM

Binder: VTGYRLFEQAL (modifications not checked) [array2.50]
- Bmax (NLpoly11S [1]): 17100
- Kd (NLpoly11S [1]): 40400 nM

Binder: VTGYRLFQKAS (modifications not checked) [array2.11]
- Bmax (NLpoly11S [1]): 80900
- Kd (NLpoly11S [1]): 748 nM

Binder: VEGYRLFEQAL (modifications not checked) [array2.104]
- Bmax (NLpoly11S [1]): 9880
- Kd (NLpoly11S [1]): 336000 nM

Binder: VTGYRLFEKIS (modifications not checked) [array2.19]
- Bmax (NLpoly11S [1]): 123000
- Kd (NLpoly11S [1]): 605 nM

Binder: VTGYRLFEQEL (modifications not checked) [array2.51]
- Bmax (NLpoly11S [1]): 46200
- Kd (NLpoly11S [1]): 85000 nM

Binder: VTGYRLFEKEL (modifications not checked) [array2.48]
- Bmax (NLpoly11S [1]): 10900
- Kd (NLpoly11S [1]): 2440 nM

Binder: VEGYRLFEKIS [NLpep104]
- Kd (NLpoly11S [2]): 1740 nM

Binder: VTGYRLFKKEL (modifications not checked) [array2.30]
- Bmax (NLpoly11S [1]): 51100
- Kd (NLpoly11S [1]): 671 nM

Binder: VTGYRLFEKES (modifications not checked) [array2.21]
- Bmax (NLpoly11S [1]): 8620
- Kd (NLpoly11S [1]): 1490 nM

Binder: VTGYRLFKKAL (modifications not checked) [array2.29]
- Bmax (NLpoly11S [1]): 98600
- Kd (NLpoly11S [1]): 276 nM

Binder: VTGYRLFQEIS (modifications not checked) [array2.16]
- Bmax (NLpoly11S [1]): 1320
- Kd (NLpoly11S [1]): 2560 nM

Binder: VTGYRLFKEEL (modifications not checked) [array2.36]
- Bmax (NLpoly11S [1]): 1720
- Kd (NLpoly11S [1]): 7780 nM

Binder: VTGYRLFKKES (modifications not checked) [array2.3]
- Bmax (NLpoly11S [1]): 56000
- Kd (NLpoly11S [1]): 773 nM
